Results reported in patent publication US7423021.

Molecular target: human thrombin (human) (UniProt P00734)
Test: cell-based or functional assay

In order of rising inhibition of the amidase activity of thrombin at 250 nM peptide:
1. N-acetyl-L-Iq3-D-Cha-L-Aze-D-Tyr-L-Har amide (peptide)  72%
2. N-acetyl-L-Pnp-D-Cha-L-Aze-D-Tyr-L-Har amide (peptide)  72%
3. N-acetyl-L-Tea-D-Cha-L-Aze-D-Tyr-L-Har amide (peptide)  74%
4. N-acetyl-L-Dcp-D-Cha-L-Aze-D-Tyr-L-Har amide (peptide)  75%
5. N-acetyl-L-Trp-D-Cha-L-Aze-D-Tyr-L-Har amide (peptide)  76%
6. N-acetyl-L-Ppd-D-Cha-L-Aze-D-Tyr-L-Har amide (peptide)  76%
7. N-acetyl-D-Phe-D-Cha-L-Aze-D-Tyr-L-Har amide (peptide)  77%
8. N-acetyl-L-Ala-D-Cha-L-Aze-D-Tyr-L-Har amide (peptide)  77%
9. N-acetyl-L-Nhm-D-Cha-L-Aze-D-Tyr-L-Har amide (peptide)  80%
10. N-acetyl-L-Nle-D-Cha-L-Aze-D-Tyr-L-Har amide (peptide)  89%
11. N-acetyl-L-Cha-D-Cha-L-Aze-D-Tyr-L-Har amide (peptide)  90%
12. N-acetyl-L-Phg-D-Cha-L-Aze-D-Tyr-L-Har amide (peptide)  95%

In order of falling inhibition of the amidase activity of thrombin at 1 µM peptide:
1. N-acetyl-L-Ala-D-Cha-L-Aze-D-Tyr-L-Arg amide (peptide)  63%
2. N-acetyl-L-Trp-L-Cha-D-Pro-D-Tyr-L-Arg amide (peptide)  63%
3. N-acetyl-L-Ile-L-Arg-L-Cha-D-Pro-D-Tyr-L-Arg amide (peptide)  61%
4. N-acetyl-D-Gln-D-His-L-Cha-D-Pro-D-Tyr-L-Arg amide (peptide)  59%
5. N-acetyl-D-Glu-L-Cha-D-Pro-D-Tyr-L-Arg amide (peptide)  58%
6. N-acetyl-L-Ala-D-Cha-L-Pro-D-Tyr-L-Har amide (peptide)  56%
7. N-acetyl-L-Tyr-L-Cit-L-Cha-D-Pro-D-Tyr-L-Arg amide (peptide)  55%
8. N-acetyl-D-Val-D-His-L-Cha-D-Pro-D-Tyr-L-Arg amide (peptide)  51%
9. N-acetyl-L-Ser-L-Arg-L-Cha-D-Pro-D-Tyr-L-Arg amide (peptide)  51%
10. N-acetyl-D-Lys-L-Nle-L-Cha-D-Pro-D-Tyr-L-Arg amide (peptide)  48%
11. N-acetyl-D-Tyr-L-Cha-D-Pro-D-Tyr-L-Arg amide (peptide)  47%
12. N-acetyl-L-Arg-L-Cha-D-Pro-D-Tyr-L-Arg amide (peptide)  47%
13. N-acetyl-L-Ser-L-Ala-L-Cha-D-Pro-D-Tyr-L-Arg amide (peptide)  47%
14. N-acetyl-D-Val-L-Cha-D-Pro-D-Tyr-L-Arg amide (peptide)  45%
15. N-acetyl-L-Tyr-D-Pro-L-Cha-D-Pro-D-Tyr-L-Arg amide (peptide)  44%
16. N-acetyl-L-Ala-L-Cha-D-Pro-D-Tyr-L-Arg amide (peptide)  44%
17. N-acetyl-L-Ser-L-Ser-L-Cha-D-Pro-D-Tyr-L-Arg amide (peptide)  40%

Molecular target: human thrombin (human) (UniProt P00734)
Test: competitive inhibition of human thrombin hydrolysis of the fluorogenic substrate Tos-Gly-Pro-Arg-AMC, Hanes analysis

In order of falling Ki:
1. Tranexamic acid-D-Cha-L-Aze-D-Try-L-Har amide (peptide)  7 nM
2. Trans-4-(guanidinomethyl)cyclohexanecarboxylic acid-D-Cha-L-Aze-D-Try-L-Har amide (peptide)  3 nM
